T1: human TREM2 (triggering receptor expressed on myeloid cells 2) (human) (UniProt Q9NZC2)
T1 sequence (looked up): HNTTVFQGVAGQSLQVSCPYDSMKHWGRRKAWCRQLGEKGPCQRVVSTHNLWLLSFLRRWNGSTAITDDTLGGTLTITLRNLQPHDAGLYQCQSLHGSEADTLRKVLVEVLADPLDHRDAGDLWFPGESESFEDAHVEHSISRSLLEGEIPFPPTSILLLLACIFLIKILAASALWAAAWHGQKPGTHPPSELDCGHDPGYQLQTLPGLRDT


Assays:
[1] = target: T1, human TREM2 (triggering receptor expressed on myeloid cells 2) (human); assay: 2nd screen, 10 nM Ab
[2] = target: T1, human TREM2 (triggering receptor expressed on myeloid cells 2) (human); assay: 1st screen, 10 nM Ab
[3] = target: T1, human TREM2 (triggering receptor expressed on myeloid cells 2) (human); assay: 2nd screen, 2 nM Ab

Row | Binder | Binding Signal (fold over 6E7 parental antibody) [1] [fold] | Binding Signal (fold over 6E7 parental antibody) [2] [fold] | Binding Signal (fold over 6E7 parental antibody) [3] [fold]
1 | 6E7 antibody affinity modulation variant V14 (antibody, V domains shown) VH: EVQLVQSGAEVKKPGESLKISCKGSGYSFGSYWIAWVRQMPGKGLEWMGIIYPGDQDTRYSPSFQGQVTISADKSISTAYLQWSSLKASDTAMYFCARGRTFYYDSSDYFDYWGQGTLVTVSS VL: DIQMTQSPSSVSASVGDRVTITCRASQGISSWLAWYQQKPGKAPKLLIYAASRLQNGVPSRFSGSGSGTDFTLTISSLQPEDFATYFCQQADSFPRTFGQGTKLEIK | 4.64 | 4.71 | 2.57
2 | 6E7 antibody affinity modulation variant V16 (antibody, V domains shown) VH: EVQLVQSGAEVKKPGESLKISCKGSGYSMTSYWIAWVRQMPGKGLEWMGIIYPGDGDTRYSPSFQGQVTISADKSISTAYLQWSSLKASDTAMYFCARSRTFYYDSSDYFDYWGQGTLVTVSS VL: DIQMTQSPSSVSASVGDRVTITCRASQGISSWLAWYQQKPGKAPKLLIYAASNLQNGVPSRFSGSGSGTDFTLTISSLQPEDFATYFCQQADSFPRTFGQGTKLEIK | 4.04 | 4.01 | 3.57
3 | 6E7 antibody affinity modulation variant V17 (antibody, V domains shown) VH: EVQLVQSGAEVKKPGESLKISCKGSGYSFGSYWIAWVRQMPGKGLEWMGIIYPGDSDTRYSPSFQGQVTISADKSISTAYLQWSSLKASDTAMYFCARSRTFYYDSSDYFDYWGQGTLVTVSS VL: DIQMTQSPSSVSASVGDRVTITCRASQGISSWLAWYQQKPGKAPKLLIYAASSRQNGVPSRFSGSGSGTDFTLTISSLQPEDFATYFCQQADSSPRTFGQGTKLEIK | 5.51 | 5.37 | 4.22
4 | 6E7 antibody affinity modulation variant V15 (antibody, V domains shown) VH: EVQLVQSGAEVKKPGESLKISCKGSGYSFASYWIAWVRQMPGKGLEWMGTIYPGDSDTRYSPSFQGQVTISADKSISTAYLQWSSLKASDTAMYFCARSRTFYYDSSDYFDYWGQGTLVTVSS VL: DIQMTQSPSSVSASVGDRVTITCRASQGISSWLAWYQQKPGKAPKLLIYAASWLQNGVPSRFSGSGSGTDFTLTISSLQPEDFATYFCQQADSYPRTFGQGTKLEIK | 4.78 | 5.23 | 4.72

More lines, now with the values ahead:

Row | Binding Signal (fold over 6E7 parental antibody) [1] [fold] | Binding Signal (fold over 6E7 parental antibody) [2] [fold] | Binding Signal (fold over 6E7 parental antibody) [3] [fold] | Binder
5 | 1.67 | 1.53 | 0.84 | 6E7 antibody affinity modulation variant V29 (antibody, V domains shown) VH: EVQLVQSGAEVKKPGESLKISCKGSGYSFKSYWIAWVRQMPGKGLEWMGIIYPGDSDTRYSPSFQGQVTISADKSISTAYLQWSSLKASDTAMYFCARQRTFYYDSSDYFDYWGQGTLVTVSS VL: DIQMTQSPSSVSASVGDRVTITCRASQGISSWLAWYQQKPGKAPKLLIYAASSLQNGVPSRFSGSGSGTDFTLTISSLQPEDFATYFCQQADSFPRTFGQGTKLEIK
6 | 3.47 | 3.57 | 2.83 | 6E7 antibody affinity modulation variant V26 (antibody, V domains shown) VH: EVQLVQSGAEVKKPGESLKISCKGSGYSFTSYWIGWVRQMPGKGLEWMGTIYPGDSDTRYSPSFQGQVTISADKSISTAYLQWSSLKASDTAMYFCARQRTMYYDSSDYFDAWGQGTLVTVSS VL: DIQMTQSPSSVSASVGDRVTITCRASQGISSWLAWYQQKPGKAPKLLIYAASSLQRGVPSRFSGSGSGTDFTLTISSLQPEDFATYFCQQADSYPRTFGQGTKLEIK
7 | 2.9 | 2.64 | 1.42 | 6E7 antibody affinity modulation variant V24 (antibody, V domains shown) VH: EVQLVQSGAEVKKPGESLKISCKGSGYSFTSYWIAWVRQMPGKGLEWMGIIYPGDSDVRYSPSFQGQVTISADKSISTAYLQWSSLKASDTAMYFCARSRTFYYDSSDYFDYWGQGTLVTVSS VL: DIQMTQSPSSVSASVGDRVTITCRASQGISSWLAWYQQKPGKAPKLLIYAASSLQKGVPSRFSGSGSGTDFTLTISSLQPEDFATYFCQQADSFPHTFGQGTKLEIK
8 | 3.61 | 3.08 | 2.63 | 6E7 antibody affinity modulation variant V28 (antibody, V domains shown) VH: EVQLVQSGAEVKKPGESLKISCKGSGYSFQSYWIAWVRQMPGKGLEWMGTIYPGDSDTRYSPSFQGQVTISADKSISTAYLQWSSLKASDTAMYFCARQRTFFYDSSDYFDYWGQGTLVTVSS VL: DIQMTQSPSSVSASVGDRVTITCRASQGISSWLAWYQQKPGKAPKLLIYAASSLQSGVPSRFSGSGSGTDFTLTISSLQPEDFATYFCQQADSLPRTFGQGTKLEIK
9 | 5.69 | 5.5 | 5.67 | 6E7 antibody affinity modulation variant V27 (antibody, V domains shown) VH: EVQLVQSGAEVKKPGESLKISCKGSGYSFTSYWIAWVRQMPGKGLEWMGIIYPGDSDTRYAPSFQGQVTISADKSISTAYLQWSSLKASDTAMYFCVRSRTFYYDSSDYFDYWGQGTLVTVSS VL: DIQMTQSPSSVSASVGDRVTITCRASQGISSWLAWYQQKPGKAPKLLIYAASSLQRGVPSRFSGSGSGTDFTLTISSLQPEDFATYFCQQADSFPRTFGQGTKLEIK
10 | 4.7 | 4.23 | 3.15 | 6E7 antibody affinity modulation variant V25 (antibody, V domains shown) VH: EVQLVQSGAEVKKPGESLKISCKGSGYSFGSYWIAWVRQMPGKGLEWMGLIYPGDSDTRYSPSFQGQVTISADKSISTAYLQWSSLKASDTAMYFCARSRTFYYDSSDYFDYWGQGTLVTVSS VL: DIQMTQSPSSVSASVGDRVTITCRASQGISSWLAWYQQKPGKAPKLLIYAASSLANGVPSRFSGSGSGTDFTLTISSLQPEDFATYFCQQADSMPRTFGQGTKLEIK
